In PMC509409, “Recognition and Accommodation at the Androgen Receptor Coactivator Binding Interface” (PLoS Biology, 2004):

Key:
Test in all cases: SPR; Biacore 2000; biotinylated peptides (about 250 RU) held on streptavidin cells, AR LBD injected at 10 μM, 5 μM, 1 μM and 300 nM, 10 μl/min; HBS-P (10 mM HEPES pH 7.4, 150 mM NaCl, 0.005% Surfactant P20); SMRT2 peptide cell subtracted as background; two-state conformational change model, Kd calculated from rate constants
Details in all cases: both partners purified
[1] = molecular target: T1, biotinylated FxxLW peptide (biotin tag attached through the additional C-terminal SGSGK)
T1 construct: also in PDB 1T79; The SGSGK-biotin form is told for the FRET assay; source: synthetic peptide (Anaspec)

[2] = molecular target: T2, biotinylated FxxLF peptide (biotin tag attached through the additional C-terminal SGSGK)
T2 construct: also in PDB 1T7R; The SGSGK-biotin form is told for the FRET assay; source: synthetic peptide (Anaspec)

[3] = molecular target: T3, biotinylated LxxLL peptide (biotin tag attached through the additional C-terminal SGSGK)
T3 construct: also in PDB 1T7F; The SGSGK-biotin form is told for the FRET assay; source: synthetic peptide (Anaspec)

- Kd [1]: 920 nM
- Kd [2]: 1100 nM
- Kd [3]: 1800 nM
B1: androgen receptor ligand-binding domain (AR LBD), DHT-bound (domain or fragment)
chain: GSPGISGGGGGSHIEGYECQPIFLNVLEAIEPGVVCAGHDNNQPDSFAALLSSLNELGERQLVHVVKWAKALPGFRNLHVDDQMAVIQYSWMGLMVFAMGWRSFTNVNSRMLYFAPDLVFNEYRMHKSRMYSQCVRMRHLSQEFGWLQITPQEFLCMKALLLFSIIPVDGLKNQKFFDELRMNYIKELDRIIACKRKNPTSCSRRFYQLTKLLDSVQPIARELHQFTFDLLIKSHMVSVDFPEMMAEIISVQVPKILSGKVKPIYFHTQ
